How the values were obtained:
[1] = molecular target: T1, recombinant hMCAM-His (human, UniProt P43121 24-559); experiment: ForteBio Octet Red, hMCAM-His analyte; Expt. #1; vs rodent 2120
T1 construct: not shown: His tag
T1 chain: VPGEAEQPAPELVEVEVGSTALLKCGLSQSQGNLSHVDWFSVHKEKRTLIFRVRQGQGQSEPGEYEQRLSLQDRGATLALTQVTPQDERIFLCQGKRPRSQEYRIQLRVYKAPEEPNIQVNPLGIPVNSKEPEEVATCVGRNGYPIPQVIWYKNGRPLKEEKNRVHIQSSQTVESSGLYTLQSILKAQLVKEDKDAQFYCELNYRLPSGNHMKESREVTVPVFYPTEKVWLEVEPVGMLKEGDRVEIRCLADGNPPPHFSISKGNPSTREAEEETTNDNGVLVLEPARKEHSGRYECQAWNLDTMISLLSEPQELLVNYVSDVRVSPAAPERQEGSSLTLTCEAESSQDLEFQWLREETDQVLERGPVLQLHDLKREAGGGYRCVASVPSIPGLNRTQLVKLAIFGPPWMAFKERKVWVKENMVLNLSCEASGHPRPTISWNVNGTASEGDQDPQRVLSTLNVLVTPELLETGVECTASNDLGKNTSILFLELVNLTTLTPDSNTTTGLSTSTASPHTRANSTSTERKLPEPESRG
Procedure: (§1) The affinities were measured using the ForteBio Octet Red. Anti-human Fc sensors were used to capture the humanized antibodies, and several concentrations of hMCAMHis analyte were used to determine the affinity using a 1:1 fitting model.

[2] = molecular target: T1, recombinant hMCAM-His; experiment: competitive ELISA on hMCAM-His, competitor biotinylated rodent or chimeric 2120; vs rodent 2120
Procedure: (§2) ELISA plates were coated with recombinant hMCAM-His, and blocked with casein buffer to prevent non-specific binding. Biotinylated rodent or chimeric antibody was added at a subsaturating concentration, in the presence or absence of 3× increasing concentrations of unlabeled competitor (humanized antibody, rodent, or chimeric). After washing to remove unbound antibody, streptavidin HRP was added to allow detection of the biotinylated antibody. The ELISA was developed with TMB substrate and the OD450 was measured. The IC50 of the unlabeled competitor was determined using the GraphPad Prism5 software.

[3] = molecular target: T2, human MCAM (melanoma cell adhesion molecule) expressed on transfected CHO cells (human, UniProt P43121 24-646); experiment: laminin/FACS on hMCAM CHO cells, competitor laminin 411; Expt#2; vs rodent 2120
T2 construct: also called hMCAM; CD146
T2 chain: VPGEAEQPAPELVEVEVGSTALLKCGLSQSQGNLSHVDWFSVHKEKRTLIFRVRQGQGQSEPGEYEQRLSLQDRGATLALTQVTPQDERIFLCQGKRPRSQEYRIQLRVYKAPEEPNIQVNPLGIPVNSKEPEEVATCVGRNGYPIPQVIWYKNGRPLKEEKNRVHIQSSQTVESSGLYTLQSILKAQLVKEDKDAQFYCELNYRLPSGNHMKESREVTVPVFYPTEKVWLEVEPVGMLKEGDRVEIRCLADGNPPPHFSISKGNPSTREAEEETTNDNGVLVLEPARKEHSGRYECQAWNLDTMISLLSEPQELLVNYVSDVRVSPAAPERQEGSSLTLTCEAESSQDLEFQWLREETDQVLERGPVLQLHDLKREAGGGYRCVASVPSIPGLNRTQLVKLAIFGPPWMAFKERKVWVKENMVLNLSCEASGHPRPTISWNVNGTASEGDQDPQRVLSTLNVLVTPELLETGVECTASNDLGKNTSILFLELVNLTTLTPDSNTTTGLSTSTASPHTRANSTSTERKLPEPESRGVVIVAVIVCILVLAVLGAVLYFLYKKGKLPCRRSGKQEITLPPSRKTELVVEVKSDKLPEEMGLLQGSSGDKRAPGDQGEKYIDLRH
Procedure: (§3) Following incubation for 30-45 minutes, the cells were washed and anti-laminin conjugated to AF650 (NovusBio) was added to detect the bound laminin. The cells were run on a flow cytometer to measure the laminin binding signal.

[4] = molecular target: T1, recombinant hMCAM-His; experiment: ForteBio Octet Red, hMCAM-His analyte; Forte column 2; vs rodent 2120
Procedure: as §1

[5] = molecular target: T1, recombinant hMCAM-His; experiment: summary of ForteBio, hMCAM-His; vs rodent 2120
Procedure: as §1

[6] = molecular target: T2, human MCAM (melanoma cell adhesion …); experiment: laminin/FACS on hMCAM CHO cells, competitor laminin 411; Expt#1; vs rodent 2120
Procedure: as §3

[7] = molecular target: T1, recombinant hMCAM-His; experiment: competitive ELISA on hMCAM-His, competitor biotinylated rodent or chimeric 2120; Expt. #1; vs rodent 2120
Procedure: as §2

[8] = molecular target: T1, recombinant hMCAM-His; experiment: ForteBio Octet Red, hMCAM-His analyte; Expt. #2; vs rodent 2120
Procedure: as §1

[9] = molecular target: T1, recombinant hMCAM-His; experiment: competitive ELISA on hMCAM-His, competitor biotinylated rodent or chimeric 2120; Expt. #2; vs rodent 2120
Procedure: as §2

[10] = molecular target: T1, recombinant hMCAM-His; experiment: ForteBio Octet Red, hMCAM-His analyte; Forte column 1; vs rodent 2120
Procedure: as §1

[11] = molecular target: T3, murine MCAM-Fc fusion protein (mouse, UniProt Q8R2Y2 24-563); experiment: ForteBio Octet Red, anti-human IgG Fc (AHC) biosensors loaded with mouse MCAM-hFc proteins (5 ug/ml), dipped into antibody (5 ug/ml) or SP2 media
T3 construct: extracellular domain; produced in CHO cells; also called mouse MCAM-Fc; mouse MCAMhFc; not shown: fused to human IgG
T3 sequence (looked up): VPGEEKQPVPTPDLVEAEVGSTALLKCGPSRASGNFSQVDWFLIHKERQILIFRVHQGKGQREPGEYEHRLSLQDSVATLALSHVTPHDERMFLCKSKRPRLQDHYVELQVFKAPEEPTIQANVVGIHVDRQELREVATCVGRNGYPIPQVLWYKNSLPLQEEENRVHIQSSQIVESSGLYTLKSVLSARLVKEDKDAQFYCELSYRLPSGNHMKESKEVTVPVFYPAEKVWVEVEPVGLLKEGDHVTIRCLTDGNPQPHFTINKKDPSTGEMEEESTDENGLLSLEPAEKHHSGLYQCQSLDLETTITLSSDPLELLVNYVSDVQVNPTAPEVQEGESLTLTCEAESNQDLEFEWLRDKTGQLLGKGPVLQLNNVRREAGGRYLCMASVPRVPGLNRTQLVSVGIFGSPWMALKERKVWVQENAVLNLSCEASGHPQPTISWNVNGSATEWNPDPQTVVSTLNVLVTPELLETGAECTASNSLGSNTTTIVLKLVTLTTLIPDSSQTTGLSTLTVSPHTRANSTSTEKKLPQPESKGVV
Source text: (§4) The following protocol was used: ForteBio Domain Mapping Protocol. ForteBio anti-human IgG Fc biosensors were used to immobilize various mouse MCAMhFc domains including full length mouse MCAMhFc protein on to biosensor surface. These sensors were dipped into either clone 15 or 17 MCAM specific antibody for detection of binding to these domains or full length protein. After loading these samples into a black 96 well plate, the Octet Red was programmed as follows: 60 seconds for baseline #1; 180 seconds for loading various domains; 60 seconds for baseline #2; 180 seconds for association of antibody to domain; and 240 seconds for dissociation of antibody from domain.
(§5) 1. Mouse MCAMhFc final concentration @ 5 ug/ml [0466] 2. Antibody clone 15 or 17 @ 5 ug/ml [0467] 3. ForteBio anti-human IgG Fc Capture (AHC) biosensors for kinetics experiments, cat#18-5060 [0468] 4. […] 5. ForteBio Octet Red machine [0470] 6. Fresh tissue culture medium, DMEM with 20% FCS, was used as buffer for dilution
(§6) For FIGS. 10A-B, clones 15 and 17 were tested against the following protein samples (all have human IgG Fc tag): Murine MCAM; Human Fc full length protein; Murine MCAM domain 1 (Ig1); Murine MCAM domain 2 (Ig2); and Murine MCAM domain 1 and 2 (Ig1-2A).

[12] = molecular target: T4, Ig2 domain (mouse, UniProt Q8R2Y2); experiment: as above
T4 construct: isolated domain 2; also called Murine MCAM domain 2 (Ig2) with human IgG Fc tag
T4 sequence (Fc fusion chain, looked up): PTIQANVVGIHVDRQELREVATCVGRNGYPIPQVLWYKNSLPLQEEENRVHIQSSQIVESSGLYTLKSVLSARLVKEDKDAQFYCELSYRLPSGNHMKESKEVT
Source text: as §4, §5, §6

[13] = molecular target: T5, mouse MCAM expressed on transfected CHO cells (mouse, UniProt Q8R2Y2 24-648); experiment: flow cytometry, mouse MCAM transfected cells mixed with CFSE-labelled untransfected cells
T5 construct: whole, on cells; also called murine MCAM
T5 sequence (looked up): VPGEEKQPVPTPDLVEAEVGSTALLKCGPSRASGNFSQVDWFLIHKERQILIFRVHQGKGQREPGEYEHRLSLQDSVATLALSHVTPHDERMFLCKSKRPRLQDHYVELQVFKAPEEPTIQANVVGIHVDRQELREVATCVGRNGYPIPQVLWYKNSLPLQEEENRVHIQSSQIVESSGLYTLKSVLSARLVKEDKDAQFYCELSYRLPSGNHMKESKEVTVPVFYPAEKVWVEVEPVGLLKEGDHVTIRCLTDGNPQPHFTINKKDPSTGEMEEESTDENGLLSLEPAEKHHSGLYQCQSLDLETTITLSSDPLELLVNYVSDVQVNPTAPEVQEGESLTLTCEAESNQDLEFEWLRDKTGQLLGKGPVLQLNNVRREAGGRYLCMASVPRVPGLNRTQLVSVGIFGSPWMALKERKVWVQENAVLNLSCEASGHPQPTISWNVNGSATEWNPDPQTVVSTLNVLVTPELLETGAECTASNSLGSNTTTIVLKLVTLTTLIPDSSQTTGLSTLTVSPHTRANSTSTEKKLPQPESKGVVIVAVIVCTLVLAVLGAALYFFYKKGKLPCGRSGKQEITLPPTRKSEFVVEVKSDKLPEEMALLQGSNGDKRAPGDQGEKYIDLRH
Procedure: For the generation of antibodies capable of binding to murine MCAM, MCAM-Fc was generated by fusing the extracellular domain of murine MCAM to human IgG and produced in CHO cells using standard techniques. Lou/M rats were immunized with 100 μg of MCAM-Fc protein in CFA (1:1 volume). Rats were boosted two times at two week intervals with MCAM-Fc protein in incomplete Freund's adjuvant (IFA) (1:1 volume). Hybridomas were generated from immunized rats using standard protocols and clones were selected by Clonepix. CHO cells were transfected with the full length murine MCAM gene and selected for stable expression using neomycin and standard techniques. Parental CHO cells (MCAM negative) were fluorescently labeled with carboxyfluorescein succinimidyl ester (CFSE) using standard techniques and mixed at a 1:1 ratio with unlabeled MCAM transfected CHO cells. Hybridoma supernatants were incubated with this mixture of cells for 30 minutes and binding of potential MCAM specific antibodies was detected with a fluorescently labeled anti-rat secondary antibody (Jackson Immuno) by flow cytometry.

B1: h2120_VH1 + h2120_VL3 (antibody, human IgG1, V domains shown)
VH: QVTLKESGPVLVKPTETLTLTCTVSGFSLTSNGVSWVRQPPGKALEWIAAISSGGTTYYNSAFKSRLTISRDTSKSQVVLTMTNMDPVDTATYYCARRYGYGWYFDFWGQGTLVTVSS
VL: DIQMTQSPSSLSASVGDRVTINCKASQNIYNSLAWYQQKPGKAPKVLIFNANSLQTGIPSRFSGSGSGTDFTLTISSLQPEDFATYYCQQFYSGYTFGQGTKLEIK
fold over rodent (Forte affinity) [1]: 5.64 fold | fold over rodent (competitive ELISA) [2]: 1.8 fold | fold over rodent (blocking, laminin/FACS) [3]: 2.8 fold | fold over rodent (Forte affinity) [4]: 5.8 fold | fold reduction in affinity as measured by ForteBio [5]: > 5 fold | fold over rodent (blocking, laminin/FACS) [6]: 1.7 fold | fold over rodent (competitive ELISA) [7]: 2.23 fold | fold over rodent (Forte affinity) [8]: 6.21 fold | fold over rodent (competitive ELISA) [9]: 2.42 fold | fold over rodent (Forte affinity) [10]: 5.9 fold

B2: h2120_VH2 + h2120_VL3 (antibody, human IgG1, V domains shown)
VH: QVTLKESGPVLVKPTETLTLTCTVSGFSLTSNGVSWVRQPPGKALEWIAAISSGGTTYYNSAFKSRLSISRDTSKSQVVLTMTNMDPVDTATYYCARRYGYGWYFDFWGQGTLVTVSS
VL: DIQMTQSPSSLSASVGDRVTINCKASQNIYNSLAWYQQKPGKAPKVLIFNANSLQTGIPSRFSGSGSGTDFTLTISSLQPEDFATYYCQQFYSGYTFGQGTKLEIK
fold over rodent (Forte affinity) [1]: 6.57 fold | fold reduction in affinity as measured by ForteBio [5]: > 5 fold | fold over rodent (competitive ELISA) [7]: 1.93 fold | fold over rodent (Forte affinity) [8]: 6.43 fold | fold over rodent (competitive ELISA) [9]: 2.62 fold

B3: anti-MCAM monoclonal antibody clone 17 (antibody, V domains shown)
VH: EVQLVESGGGLVQPGRSLKLSCAASGFTFSNYYMAWVRQAPTKGLEWVASISFEGNRNHYGDSVKGRITISRDNAKSTLYLQMTSLRPEDTATYYCARHRGYSTNFYHDVLDAWGQGALVTVSS
VL: DVQMTQSPSYLATSPGESVSISCKASKNIDTYLAWYQEKPGKTNKLLIYSGSTLQSGTPSRFSGSGSGTDFTLTIRNLESEDFAVYYCQQHNEYPLTFGSGTKLEIKR
notes: rat monoclonal raised against murine MCAM-Fc; also called anti-MCAM clone 17
binding result [11]: binds | binding result [12]: no binding (tested: 5 ug/ml) | binding result [13]: binds
